Test results taken from US20200283523A1 (WUXI BIOLOGICS IRELAND, published 2020).

Tests used:
[1] = molecular target: T1, FcγRIIb (UniProt P31994 46-217, limits assumed); experiment: SPR (Biacore), receptor captured on anti-his chip, antibody injected, steady state fit
T1 sequence (looked up): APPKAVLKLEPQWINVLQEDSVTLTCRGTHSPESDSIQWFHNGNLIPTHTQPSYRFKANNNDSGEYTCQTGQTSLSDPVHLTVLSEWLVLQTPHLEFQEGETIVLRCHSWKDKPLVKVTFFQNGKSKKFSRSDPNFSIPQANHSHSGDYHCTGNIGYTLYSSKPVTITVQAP
Description: (§1) Antibody binding affinity to FcγRs was detected using Biacore T200 (or Biacore 8K). Each receptor was captured on an anti-his antibody immobilized CMS sensor chip (GE). Antibodies at different concentrations were injected over the sensor chip at a flow rate of 30 uL/min for an association phase of 60 s, followed by 60 s dissociation. The chip was then regenerated by 10 mM glycine (pH 1.5) after each binding cycle.
(§2) The sensorgrams of blank surface and buffer channel were subtracted from the test sensorgrams. The experimental data was fitted by 1:1 model using Langmiur analysis (for FcγRI) or steady state model (for other receptors). A molecular weight of 150 KDa was used to calculate the molar concentration of antibodies.

[2] = molecular target: FcγRIIIb (UniProt O75015 17-200); experiment: as above
Chain of FcγRIIIb (O75015 17-200 limits assumed): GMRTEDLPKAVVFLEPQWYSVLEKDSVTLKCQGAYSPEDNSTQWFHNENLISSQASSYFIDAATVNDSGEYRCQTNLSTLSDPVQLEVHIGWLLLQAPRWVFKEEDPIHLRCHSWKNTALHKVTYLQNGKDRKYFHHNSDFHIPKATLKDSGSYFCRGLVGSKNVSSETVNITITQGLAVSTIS
Description: as §1, §2

[3] = molecular target: FcγRIIIa (F176) (UniProt P08637 17-208); experiment: as above
Chain of FcγRIIIa (F176) (P08637 17-208 limits assumed): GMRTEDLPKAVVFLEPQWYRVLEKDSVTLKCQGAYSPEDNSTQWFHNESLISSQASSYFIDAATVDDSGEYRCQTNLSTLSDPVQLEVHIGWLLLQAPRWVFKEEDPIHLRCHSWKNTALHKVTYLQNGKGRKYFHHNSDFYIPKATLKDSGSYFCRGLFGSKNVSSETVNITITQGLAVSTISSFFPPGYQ
Description: as §1, §2

[4] = molecular target: FcγRIIIa (V176) (UniProt P08637 17-208); experiment: as above
Chain of FcγRIIIa (V176) (P08637 17-208 F176V limits assumed): as the sequence (P08637 17-208 limits assumed) above, with F160V counted along it
Description: as §1, §2

[5] = molecular target: T2, FcγRIIa (H167) (UniProt P12318 36-218, limits assumed); experiment: as above
T2 sequence (looked up): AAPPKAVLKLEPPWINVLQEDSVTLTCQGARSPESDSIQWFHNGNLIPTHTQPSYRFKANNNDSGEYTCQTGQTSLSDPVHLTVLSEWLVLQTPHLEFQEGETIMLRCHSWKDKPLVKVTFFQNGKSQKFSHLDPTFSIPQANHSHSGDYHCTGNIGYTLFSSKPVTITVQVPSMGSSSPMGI
Description: as §1, §2

[6] = molecular target: T3, FcγRIIa (R167) (UniProt P12318 36-218, limits assumed); experiment: as above
T3 sequence (looked up): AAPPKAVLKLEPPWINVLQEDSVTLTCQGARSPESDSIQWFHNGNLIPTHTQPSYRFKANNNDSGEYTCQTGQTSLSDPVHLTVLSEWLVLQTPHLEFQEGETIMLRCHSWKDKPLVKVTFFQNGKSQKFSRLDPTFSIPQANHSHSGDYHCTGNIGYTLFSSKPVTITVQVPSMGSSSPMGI
Description: as §1, §2

[7] = molecular target: T4, cynomolgus CD19 (cynomolgus monkey, UniProt A0A2K5W8L9 20-557); experiment: flow cytometry on CHO-K1 cells expressing cynomolgus CD19 (WBP701.CHO-K1.cpro1.FL.C9)
T4 construct: whole, on cells; also called monkey CD19; WBP701.CHO-K1.cpro1.FL.C9 cells
T4 sequence: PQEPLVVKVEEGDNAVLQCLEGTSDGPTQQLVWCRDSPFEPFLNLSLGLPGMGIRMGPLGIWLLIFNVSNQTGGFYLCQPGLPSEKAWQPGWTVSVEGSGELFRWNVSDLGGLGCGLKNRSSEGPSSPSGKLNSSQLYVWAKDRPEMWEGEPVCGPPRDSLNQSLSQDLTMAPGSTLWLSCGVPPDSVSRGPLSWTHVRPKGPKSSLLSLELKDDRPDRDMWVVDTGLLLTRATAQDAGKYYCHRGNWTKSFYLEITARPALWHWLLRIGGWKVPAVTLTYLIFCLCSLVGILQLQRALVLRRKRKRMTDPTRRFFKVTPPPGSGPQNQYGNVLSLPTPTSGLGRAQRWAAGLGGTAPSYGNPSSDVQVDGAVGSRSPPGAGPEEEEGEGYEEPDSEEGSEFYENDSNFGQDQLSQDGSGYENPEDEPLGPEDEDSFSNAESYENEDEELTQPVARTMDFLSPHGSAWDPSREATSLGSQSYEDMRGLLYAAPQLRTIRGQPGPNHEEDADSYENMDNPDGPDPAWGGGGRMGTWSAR
Description: Binding of the CD3×CD19 bispecific antibody to cynomoglus CD19 target protein expressed on CHOK1 cells was determined by flow cytometry analysis. In brief, cynomoglus CD19 over-expressed stable cell line (WBP701.CHOK1.cPro1.C9, WuXi Biologics) were harvested with trypsin and diluted to 1×10⁶ cells/ml in 1% BSA/1×PBS. 1×10⁵ cells/well (100 ul) were added to each well of a 96-well U-plate (Corning, #3799) and centrifuged at 1500 rpm (Eppendorf, #5810R) for 5 minutes before removing the supernatant. Antibodies serially diluted in 1% BSA/1×PBS were added at 100 µl/well to the pelleted cells and incubated at 4° C. for 1 hour. A non-related hIgG4 antibody was used as an isotype control. […] Pelleted cells were resuspended in 100 ul/well Fluorescence-labeled anti-human IgG Fc antibody (Jackson, #109-115-098) 1:150 diluted in 1% BSA/1×PBS for 30 minutes at 4° C. in the dark. […] After the final wash, cells were resuspended in 80 ul 1% BSA/1×PBS and fluorescence values were measured with a FACS Canto II cytometer (BD Biosciences). The amount of cell surface bound anti-CD19&CD3 bispecific antibody was assessed by measuring the mean fluorescence (MFI). The FACS raw data were analyzed by FlowJo software, wells containing no antibody or secondary antibody only were used to establish background fluorescence. […]

B1: W3438-T3U4.E17-1.uIgG4.SP (bispecific antibody)
light 1: DIVMTQSPDSLAVSLGERATINCKSSQSLLNSRTRKNYLAWYQQKPGQPPKLLIYWASTRQSGVPDRFSGSGSGTDFTLTISSLQAEDVAVYYCTQSHTLRTFGGGTKVEIKPDIQNPDPAVYQLRDSKSSDKSVCLFTDFDSQTQVSQSKDSDVYITDKCVLDMRSMDFKSNSAVAWSQKSDFACANAFQNSIIPEDTFFPSPESS
heavy 1: QVQLVQSGAEVKKPGSSVKVSCKASGFAFTDYYIHWVRQAPGQGLEWMGWISPGNVNTKYNENFKGRVTITADKSTSTAYMELSSLRSEDTAVYYCARDGYSLYYFDYWGQGTLVTVLEDLKNVFPPEVAVFEPSEAEISHTQKATLVCLATGFYPDHVELSWWVNGKEVHSGVCTDPQPLKEQPALQDSRYALSSRLRVSATFWQNPRNHFRCQVQFYGLSENDEWTQDRAKPVTQIVSAEAWGRYGPPCPPCPAPEFLGGPSVFLFPPKPKDTLMISRTPEVTCVVVDVSQEDPEVQFNWYVDGVEVHNAKTKPREEQFNSTYRVVSVLTVLHQDWLNGKEYKCKVSNKGLPSSIEKTISKAKGQPREPQVYTLPPCQEEMTKNQVSLWCLVKGFYPSDIAVEWESNGQPENNYKTTPPVLDSDGSFFLYSRLTVDKSRWQEGNVFSCSVMHEALHNHYTQKSLSLSLGK
light 2: DIQLTQSPSFLSASVGDRVTITCSASSTVNYMHWYQQKPGKAPKLLIYSTSNLASGVPSRFSGSGSGTEFTLTISSLQPEDFATYYCHQWSSYPYTFGQGTKLEIKRTVAAPSVFIFPPSDEQLKSGTASVVCLLNNFYPREAKVQWKVDNALQSGNSQESVTEQDSKDSTYSLSSTLTLSKADYEKHKVYACEVTHQGLSSPVTKSFNRGEC
heavy 2: QMQLVQSGPEVKKPGTSVKVSCKASGYAFTSYNMYWVRQARGQRLEWIGYIDPYNGDTTYNQKFKGRVTITRDMSTSTAYMELSSLRSEDTAVYYCLTTAYAMDYWGQGTLVTVSSASTKGPSVFPLAPCSRSTSESTAALGCLVKDYFPEPVTVSWNSGALTSGVHTFPAVLQSSGLYSLSSVVTVPSSSLGTKTYTCNVDHKPSNTKVDKRVESKYGPPCPPCPAPEFLGGPSVFLFPPKPKDTLMISRTPEVTCVVVDVSQEDPEVQFNWYVDGVEVHNAKTKPREEQFNSTYRVVSVLTVLHQDWLNGKEYKCKVSNKGLPSSIEKTISKAKGQPREPQVCTLPPSQEEMTKNQVSLSCAVKGFYPSDIAVEWESNGQPENNYKTTPPVLDSDGSFFLVSRLTVDKSRWQEGNVFSCSVMHEALHNHYTQKSLSLSLGK
notes: Bispecific, bivalent: one anti-CD3 arm with TCR constant domains and one native anti-CD19 Fab arm, IgG4 S228P Fc with knobs-into-holes; also called WBP3438; CD3×CD19 bispecific antibody; copies: 1 + 1 + 1 + 1
Kd [1]: 24.1 µM
Kd [2]: > 41 µM
Kd [3]: 29.3 µM
Kd [4]: 14 µM
Kd [5]: 20.5 µM
Kd [6]: 15.8 µM
EC50 [7]: 0.026 µM
